T1: Smc6 (Twin-Strep-tag removed, as in the octamer for lysine cross-linking) (S. cerevisiae, UniProt Q12749 1-1114)
T1 construct: Smc6, S. cerevisiae; subunit of the octamer used for XL-MS; source: E. coli (DE3) Rosetta, purified as part of the hexamer; tag removed by HRV-3C before SEC of the octamer; not shown: Twin-Strep (after a 3C site), C-terminal, cleaved
T1 sequence (looked up): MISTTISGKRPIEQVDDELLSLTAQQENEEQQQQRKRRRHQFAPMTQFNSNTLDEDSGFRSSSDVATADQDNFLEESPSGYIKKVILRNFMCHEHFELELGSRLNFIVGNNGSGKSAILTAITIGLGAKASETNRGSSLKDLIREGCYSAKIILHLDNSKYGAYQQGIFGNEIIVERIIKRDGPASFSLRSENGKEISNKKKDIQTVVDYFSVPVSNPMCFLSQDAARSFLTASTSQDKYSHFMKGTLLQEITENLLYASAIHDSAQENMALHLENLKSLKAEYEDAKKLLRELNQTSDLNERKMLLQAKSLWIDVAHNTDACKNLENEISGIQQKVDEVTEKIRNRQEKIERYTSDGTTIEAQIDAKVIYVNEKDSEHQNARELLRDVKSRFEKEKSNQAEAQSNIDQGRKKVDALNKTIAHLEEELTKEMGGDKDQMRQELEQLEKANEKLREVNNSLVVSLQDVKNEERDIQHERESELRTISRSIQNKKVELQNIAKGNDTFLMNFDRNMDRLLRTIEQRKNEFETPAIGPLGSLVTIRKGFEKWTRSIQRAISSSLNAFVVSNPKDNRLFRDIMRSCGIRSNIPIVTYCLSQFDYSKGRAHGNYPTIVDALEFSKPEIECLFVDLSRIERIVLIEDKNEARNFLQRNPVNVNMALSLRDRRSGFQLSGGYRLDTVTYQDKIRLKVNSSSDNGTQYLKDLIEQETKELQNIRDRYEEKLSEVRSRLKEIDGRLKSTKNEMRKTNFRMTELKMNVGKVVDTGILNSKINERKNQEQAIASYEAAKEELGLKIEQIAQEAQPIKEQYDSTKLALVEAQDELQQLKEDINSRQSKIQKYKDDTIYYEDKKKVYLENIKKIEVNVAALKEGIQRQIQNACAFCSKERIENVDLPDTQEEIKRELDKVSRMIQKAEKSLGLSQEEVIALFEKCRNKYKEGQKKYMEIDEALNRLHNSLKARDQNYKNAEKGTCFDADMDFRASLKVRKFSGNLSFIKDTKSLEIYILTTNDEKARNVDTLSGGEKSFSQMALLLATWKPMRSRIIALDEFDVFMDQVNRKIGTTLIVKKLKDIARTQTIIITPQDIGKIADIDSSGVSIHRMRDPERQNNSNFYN

T2: Nse1/3/4 sub-complex (S. cerevisiae, UniProt Q07913 1-336; Q05541 1-303; P43124 1-402)
T2 construct: Nse1, S. cerevisiae; Nse3, S. cerevisiae; Nse4, S. cerevisiae; used where the text names only the module as the partner of a cross-link and not which subunit; also called Nse1/3/4 module; Nse4/3/1 module; source: E. coli (DE3) Rosetta, purified as part of the hexamer and octamer; copies: + +
T2 sequence (looked up) 1: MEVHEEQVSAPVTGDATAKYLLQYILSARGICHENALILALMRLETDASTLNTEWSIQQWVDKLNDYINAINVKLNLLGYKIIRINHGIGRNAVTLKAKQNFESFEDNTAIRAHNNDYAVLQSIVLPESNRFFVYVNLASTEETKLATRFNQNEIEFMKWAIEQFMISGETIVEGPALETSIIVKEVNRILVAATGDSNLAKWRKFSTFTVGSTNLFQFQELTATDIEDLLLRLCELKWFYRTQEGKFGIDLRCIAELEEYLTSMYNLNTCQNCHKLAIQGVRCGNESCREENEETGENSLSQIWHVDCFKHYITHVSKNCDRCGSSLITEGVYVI
T2 sequence (looked up) 2: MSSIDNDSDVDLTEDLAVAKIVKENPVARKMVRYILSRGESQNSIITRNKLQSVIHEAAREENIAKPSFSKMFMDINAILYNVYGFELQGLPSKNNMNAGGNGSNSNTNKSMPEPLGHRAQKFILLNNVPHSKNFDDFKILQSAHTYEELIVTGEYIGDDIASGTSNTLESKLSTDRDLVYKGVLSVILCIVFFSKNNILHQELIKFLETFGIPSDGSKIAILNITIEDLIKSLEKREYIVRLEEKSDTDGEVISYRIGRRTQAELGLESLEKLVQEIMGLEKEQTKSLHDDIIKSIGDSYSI
T2 sequence (looked up) 3: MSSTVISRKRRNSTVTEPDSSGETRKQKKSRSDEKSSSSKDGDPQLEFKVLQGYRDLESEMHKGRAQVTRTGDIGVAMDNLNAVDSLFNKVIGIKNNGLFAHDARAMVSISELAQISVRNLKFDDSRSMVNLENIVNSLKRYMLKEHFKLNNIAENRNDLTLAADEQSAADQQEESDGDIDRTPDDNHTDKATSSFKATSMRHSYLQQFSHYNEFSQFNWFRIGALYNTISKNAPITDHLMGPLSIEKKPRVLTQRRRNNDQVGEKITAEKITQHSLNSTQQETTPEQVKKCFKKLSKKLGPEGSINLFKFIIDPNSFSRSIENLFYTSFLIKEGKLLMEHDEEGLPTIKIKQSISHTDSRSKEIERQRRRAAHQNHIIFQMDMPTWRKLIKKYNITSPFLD

B1: Smc5 (natural protein, S. cerevisiae, UniProt Q08204 1-1093, looked up)
chain: MTSLIDLGRYVERTHHGEDTEPRSKRVKIAKPDLSSFQPGSIIKIRLQDFVTYTLTEFNLSPSLNMIIGPNGSGKSTFVCAVCLGLAGKPEYIGRSKKVEDFIKNGQDVSKIEITLKNSPNVTDIEYIDARDETIKITRIITRSKRRSDYLINDYQVSESVVKTLVAQLNIQLDNLCQFLSQERVEEFARLKSVKLLVETIRSIDASLLDVLDELRELQGNEQSLQKDLDFKKAKIVHLRQESDKLRKSVESLRDFQNKKGEIELHSQLLPYVKVKDHKEKLNIYKEEYERAKANLRAILKDKKPFANTKKTLENQVEELTEKCSLKTDEFLKAKEKINEIFEKLNTIRDEVIKKKNQNEYYRGRTKKLQATIISTKEDFLRSQEILAQTHLPEKSVFEDIDIKRKEIINKEGEIRDLISEIDAKANAINHEMRSIQRQAESKTKSLTTTDKIGILNQDQDLKEVRDAVLMVREHPEMKDKILEPPIMTVSAINAQFAAYLAQCVDYNTSKALTVVDSDSYKLFANPILDKFKVNLRELSSADTTPPVPAETVRDLGFEGYLSDFITGDKRVMKMLCQTSKIHTIPVSRRELTPAQIKKLITPRPNGKILFKRIIHGNRLVDIKQSAYGSKQVFPTDVSIKQTNFYQGSIMSNEQKIRIENEIINLKNEYNDRKSTLDALSNQKSGYRHELSELASKNDDINREAHQLNEIRKKYTMRKSTIETLREKLDQLKREARKDVSQKIKDIDDQIQQLLLKQRHLLSKMASSMKSLKNCQKELISTQILQFEAQNMDVSMNDVIGFFNEREADLKSQYEDKKKFVKEMRDTPEFQSWMREIRSYDQDTKEKLNKVAEKYEEEGNFNLSFVQDVLDKLESEIAMVNHDESAVTILDQVTAELRELEHTVPQQSKDLETIKAKLKEDHAVLEPKLDDIVSKISARFARLFNNVGSAGAVRLEKPKDYAEWKIEIMVKFRDNAPLKKLDSHTQSGGERAVSTVLYMIALQEFTSAPFRVVDEINQGMDSRNERIVHKAMVENACAENTSQYFLITPKLLTGLHYHEKMRIHCVMAGSWIPNPSEDPKMIHFGETSNYSFD
notes: Smc5, S. cerevisiae; stood in the assays as a subunit of the hexamer or octamer; source: E. coli (DE3) Rosetta, co-expressed with the other subunits of the hexamer, purified as part of the complex
B2: Nse5-AviTag (from Nse5-AviTag-3C-Twin-Strep, Twin-Strep removed) (natural protein, S. cerevisiae, UniProt Q03718 1-556, looked up)
chain: MDGALINSVLYVSPRNGAHYFVELTEKHLLAFEMLNSMCLLENYDHVLLFLECQFGKSHNLAVIPFDIILVLFTLSTLSEYYKEPILRANDPYNTSRETLSRRALKLLQKYLAILKEFDSEQYNLYDLELLRCQFFLAIDTLTPKKQKWGFDRFRRTKSESGVTYRQNASVDPELDQAKTFKNPYRSYISCLEQRNTILGNRLLNLKLNEPGEFINMILWTLSNSLQESTPLFLSSHEIWMPLLEILIDLFSCRQDYFIQHEVAQNVSKSLFVQRLSESPLAVFFESLNTRNFANRFSEYVFLNCDYKLPSDNYATPVHPVYNGENTIVDTYIPTIKCSPLYKSQKSLALRRKLIGSCFKLLLRVPDGHRLITPRIVADDVIQGISRTLASFNDILQFKKFFMTENLSQESYFIPLLAEGTLSEILKDTQECVVILTLVENLSDGVSFCNEVIGLVKSKCFAFTEQCSQASYEEAVLNIEKCDVCLLVLLRYLLHLIGTEAILDAKEQLEMLHAIEKNDSGRRQWAKALNLGNDPPLLYPIVSQMFGVHDKSVIIE
notes: Nse5, S. cerevisiae, full length; subunit of the octamer used for XL-MS; the AviTag lies before the 3C site and should remain; source: E. coli (DE3) Rosetta, co-expressed with Nse6, purified (StrepTrap, heparin, SEC); Twin-Strep removed by HRV-3C; not shown: Twin-Strep (after a 3C site), C-terminal, cleaved
B3: Nse2 (natural protein, S. cerevisiae, UniProt P38632 1-267, looked up)
chain: MALNDNPIPKSVPLHPKSGKYFHNLHARDLSNIYQQCYKQIDETINQLVDSTSPSTIGIEEQVADITSTYKLLSTYESESNSFDEHIKDLKKNFKQSSDACPQIDLSTWDKYRTGELTAPKLSELYLNMPTPEPATMVNNTDTLKILKVLPYIWNDPTCVIPDLQNPADEDDLQIEGGKIELTCPITCKPYEAPLISRKCNHVFDRDGIQNYLQGYTTRDCPQAACSQVVSMRDFVRDPIMELRCKIAKMKESQEQDKRSSQAIDVL
notes: Nse2, S. cerevisiae; source: E. coli (DE3) Rosetta, co-expressed with the other subunits of the hexamer, purified as part of the complex
B4: Nse3 (natural protein, S. cerevisiae, UniProt Q05541 1-303, looked up)
chain: T2 sequence (looked up) 2
notes: Nse3, S. cerevisiae; source: E. coli (DE3) Rosetta, co-expressed with the other subunits of the hexamer, purified as part of the complex
B5: Nse4 (natural protein, S. cerevisiae, UniProt P43124 1-402, looked up)
chain: T2 sequence (looked up) 3
notes: Nse4, S. cerevisiae; also called kleisin Nse4; source: E. coli (DE3) Rosetta, co-expressed with the other subunits of the hexamer, purified as part of the complex

Assays:
[1] = target: Smc5/6 hexamer (Smc5, Smc6, Nse1, Nse2, Nse3, Nse4) (Saccharomyces cerevisiae) (UniProt Q08204+Q12749+Q07913+P38632+Q05541+P43124); experiment: fluorescence anisotropy; conditions: ATPase buffer: 10 mM Hepes-KOH pH 7.5, 150 mM K-OAc, 2 mM MgCl2, 20% glycerol; anisotropy at 25 C; plasmid pulldown bound at room temperature, high-salt buffer …
[2] = target: Smc5/6 octamer (hexamer plus Nse5/6) (Saccharomyces cerevisiae, UniProt Q08204;Q12749;Q07913;P38632;Q05541;P43124;Q03718;P40026 …); experiment: fluorescence anisotropy; conditions: ATPase buffer: 10 mM Hepes-KOH pH 7.5, 150 mM K-OAc, 2 mM MgCl2, 20% glycerol; anisotropy at 25 C; plasmid pulldown bound at room temperature, high-salt buffer …
[3] = target: T1, Smc6 (Twin-Strep-tag removed, as in the …); experiment: cross-linking; XL-MS with the lysine-reactive PhoX (0.25 mM, 20 min, RT) on the reconstituted octamer, 1.6 µM; salt buffer 20 mM Hepes-KOH pH 7.5, 250 mM NaCl; conditions: both partners purified
Nse1/3/4 sub-complex = target: T2, Nse1/3/4 sub-complex; experiment: as above; conditions: both partners purified
[4] = target: T1, Smc6 (Twin-Strep-tag removed, as in the …); experiment: cross-linking; XL-MS with PhoX (0.25 mM, 20 min, RT) on the octamer, 1.6 µM; ATPase buffer (10 mM Hepes-KOH pH 7.5, 150 mM potassium acetate, 2 mM MgCl2, 20% glycerol); without and with 2 mM ATP and 16 nM plasmid DNA; wild-type and Smc5(EQ)/Smc6(EQ) octamers; conditions: both partners purified

Smc5/6 octamer (hexamer plus Nse5/6), sequence (P40026 whole entry, one chain of several): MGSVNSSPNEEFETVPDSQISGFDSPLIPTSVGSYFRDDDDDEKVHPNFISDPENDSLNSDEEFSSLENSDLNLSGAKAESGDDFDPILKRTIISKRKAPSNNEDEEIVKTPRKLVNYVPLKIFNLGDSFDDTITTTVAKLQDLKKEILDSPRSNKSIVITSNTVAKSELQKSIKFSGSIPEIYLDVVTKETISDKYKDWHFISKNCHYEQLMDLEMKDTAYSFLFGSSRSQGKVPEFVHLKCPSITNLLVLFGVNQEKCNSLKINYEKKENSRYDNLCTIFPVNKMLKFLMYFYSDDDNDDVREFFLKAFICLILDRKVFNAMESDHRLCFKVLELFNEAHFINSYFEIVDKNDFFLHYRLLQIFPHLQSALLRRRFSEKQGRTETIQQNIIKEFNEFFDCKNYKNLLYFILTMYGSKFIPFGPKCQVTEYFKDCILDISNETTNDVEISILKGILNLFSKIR

Row | Molecule | binding result [3] | binding result [4] | also measured
1 | 40-mer ssDNA |  |  | Kd [1]: 150 nM; Kd [2]: 100 nM
2 | B1 | binds |  | 
3 | B2 | binds |  | binding result (Nse1/3/4 sub-complex): binds
4 | B3 |  | binds | 
5 | B4 |  | binds | 
6 | B5 |  | binds | 

Source: PMC8327961, “Nse5/6 inhibits the Smc5/6 ATPase and modulates DNA substrate binding” (The EMBO Journal, 2021)
